Test [1] has as its target T1, HA-GCN4 hAPRIL (amino acid residues 105-250) (human, UniProt O75888 105-250).
T1 construct: Bought (R&D Systems); also called HA-tagged GCN4 human APRIL; HA-GCN4-huAPRIL; not shown: N-terminal HA tag; GCN4 isoleucine zipper oligomerization domain
T1 sequence: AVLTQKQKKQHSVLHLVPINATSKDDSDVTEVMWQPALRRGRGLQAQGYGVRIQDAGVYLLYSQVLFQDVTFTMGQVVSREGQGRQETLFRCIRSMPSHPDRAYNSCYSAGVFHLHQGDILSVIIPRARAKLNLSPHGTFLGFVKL
Kind of test: ELISA on trimeric (GCN4-stabilised) human APRIL. From the text:
APRIL trimer was stabilized by the N-terminal fusion of APRIL with an isoleucine zipper (GCN4) oligomerization domain Binding of APRIL to human TACI-Fc is shown for comparative purposes.
(In general: An ELISA detects its analyte on a solid surface through an enzyme-linked reagent.)

The target in test [2] is T1, HA-GCN4 hAPRIL (amino acid residues …). Kind of test: cell-based or functional assay.
For test [3] the target is unchanged. Kind of test: blocking ELISA; blocked: human APRIL binding to BCMA-Fc. As for the experimental part: (§1) Recombinant TACI-Fc or BCMA-Fc was coated on 96 well plates in 0.1 M carbonate-bicarbonate buffer (pH 9.6), overnight at 4° C. Plates were washed three times with 1×PBST (PBS+0.025% Tween 20) followed by blocking with 1% BSA in 1×PBS, 37° C. for 1 hour. All subsequent wash steps were carried out with 1×PBST. To assess antibody blocking, either 15 ng/mL or 50 ng/mL HA-GCN4-huAPRIL was preincubated with varying antibody concentrations ranging from 0.03-30 μg/mL in binding buffer comprised of 1% BSA and 0.025% Tween-20 in 1×PBS. Preincubation was carried out at 30° C. for 1 hour with mixing. Antibody-APRIL premix with 50 ng/mL APRIL or 15 ng/mL APRIL was then added to TACI-Fc coated or BCMA-Fc coated plates, respectively, and incubated for an additional hour at 30° C. HA-tagged APRIL binding to either receptor was quantified using a goat polyclonal anti-HA tag-HRP antibody (Abcam) added at a 1:10000 dilution followed by colorimetric development using 100 μl/well of freshly prepared TMB substrate (KPL) carried out for up to 30 minutes at room temperature before quenching enzymatic reaction by the addition of 1N sulfuric acid. ELISA signal was quantified by absorbance at 450 nm. ELISA data was analyzed by non-linear regression. IC₅₀ values were calculated based on a 4 parameter fit of antibody titration curves. […] Non-blocking antibodies Aprly-1 or Aprly-5 (Enzo Biosciences) were used as negative controls. Mouse specific, blocking antibody aprily-1-1 (Adipogen) was generally used as a positive control in experiments using mouse APRIL (HA-GCN4-mAPRIL).
Assay is based on receptor blocking ELISA using recombinant human APRIL (R&D Systems) and either human TACI-Fc (FIG. 30A) or BCMA-Fc (FIG. 30B).

Test [4] shares this target. Kind of test: blocking ELISA; blocked: human APRIL binding to TACI-Fc.
Test [5] shares this target. Kind of test: indirect ELISA on human APRIL.
For test [6] the target is unchanged. In words: blocking ELISA, 4-parameter fit; blocked: human APRIL binding to human BCMA-Fc. As for the experimental part: as §1
For test [7] the target is unchanged. Kind of test: blocking ELISA, 4-parameter fit; blocked: human APRIL binding to human TACI-Fc. As for the experimental part:
as §1

Test [8] shares this target. Kind of test: blocking ELISA; blocked: human APRIL binding to human TACI-Fc. Further details: concentration or dose not given beside the values. As for the experimental part:
as §1

For test [9], the target named is T2, HA-GCN4 mAPRIL (amino acid residues 96-241) (mouse, UniProt Q9D777 96-241, Assembles as a homotrimer through the GCN4 zipper; one protomer is given.).
T2 construct: Bought (R&D Systems); also called HA-tagged mouse APRIL (R&D Systems); recombinant mouse APRIL; not shown: N-terminal HA tag and GCN4 isoleucine-zipper trimerisation domain, with any linker, of the bought R&D Systems protein
T2 sequence: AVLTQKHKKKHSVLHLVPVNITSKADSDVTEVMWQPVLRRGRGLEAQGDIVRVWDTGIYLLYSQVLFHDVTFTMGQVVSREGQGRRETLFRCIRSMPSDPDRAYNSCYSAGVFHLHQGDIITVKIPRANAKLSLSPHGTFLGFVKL
Kind of test: blocking ELISA; blocked: mouse APRIL binding to human BCMA-Fc. As for the experimental part: (§2) Recombinant TACI-Fc or BCMA-Fc was coated on 96 well plates in 0.1 M carbonate-bicarbonate buffer (pH 9.6), overnight at 4° C. Plates were washed three times with 1×PBST (PBS+0.025% Tween 20) followed by blocking with 1% BSA in 1×PBS, 37° C. for 1 hour. All subsequent wash steps were carried out with 1×PBST. To assess antibody blocking, either 15 ng/mL or 50 ng/mL HA-GCN4-huAPRIL was preincubated with varying antibody concentrations ranging from 0.03-30 μg/mL in binding buffer comprised of 1% BSA and 0.025% Tween-20 in 1×PBS. Preincubation was carried out at 30° C. for 1 hour with mixing. Antibody-APRIL premix with 50 ng/mL APRIL or 15 ng/mL APRIL was then added to TACI-Fc coated or BCMA-Fc coated plates, respectively, and incubated for an additional hour at 30° C. HA-tagged APRIL binding to either receptor was quantified using a goat polyclonal anti-HA tag-HRP antibody (Abcam) added at a 1:10000 dilution followed by colorimetric development using 100 μl/well of freshly prepared TMB substrate (KPL) carried out for up to 30 minutes at room temperature before quenching enzymatic reaction by the addition of 1N sulfuric acid. ELISA signal was quantified by absorbance at 450 nm. ELISA data was analyzed by non-linear regression. IC₅₀ values were calculated based on a 4 parameter fit of antibody titration curves. […]

Test [10] deals with T1, HA-GCN4 hAPRIL (amino acid residues …). Kind of test: blocking ELISA; blocked: human APRIL binding to human BCMA-Fc. Further details: concentration or dose not given beside the values. As for the experimental part:
as §1

Test [11] shares this target. Kind of test: indirect ELISA on HA-GCN4 human APRIL, 3-parameter fit. As for the experimental part: FIG. 5 depicts the binding of anti-APRIL antibodies to human APRIL. Relative binding of select anti-APRIL antibodies was measured by indirect ELISA. Select antibodies based on prior hybridoma screening were recombinantly produced (based on immunoglubin VH and VL gene sequencing) as described. HA-tagged GCN4 human APRIL R&D Systems was used as source of APRIL. Binding data was analyzed by non-linear regression using a three parameter fit.
(§3) Purified antibodies were further characterized for APRIL binding, APRIL species cross reactivity (human APRIL vs. mouse APRIL), and receptor blocking activity using TACI-Fc. For binding, an APRIL-based indirect ELISA was used to determine by first approximation the relative affinity of purified anti-APRIL antibodies to either human APRIL or mouse APRIL. ELISA method was as generally described above. […] Blocking and wash steps were completed as described. Binding of anti-APRIL antibodies to APRIL was quantified using an 8 point dilution of test antibody that spanned over a four log scale. Antibody binding to APRIL was detected using a rabbit anti-mouse IgG (H+L)-HRP conjugate (Jackson ImmunoResearch Laboratories). Antibody binding data was analyzed by non-linear regression analysis using a 3 parameter fit to determine max binding and apparent EC₅₀ values. […] Mouse specific antibody Apry-1-1 (Adipogen) was likewise used for quantification of antibody binding to mouse APRIL.

For test [12] the target is unchanged. Kind of test: indirect ELISA on coated HA-GCN4 human APRIL; EC50 from non-linear regression.
Text: as §3

Test [13] has the same target. Kind of test: competition ELISA: antibody titrated against human APRIL, read-out APRIL bound to coated human TACI-Fc. As for the experimental part:
Mouse specific antibody Apry-1-1 (Adipogen) was likewise used for quantification of antibody binding to mouse APRIL.
as §2, with “Antibody-APRIL premix with 50 ng/mL APRIL or 15 ng/mL APRIL was then added to TACI-Fc coated or BCMA-Fc coated plates, respectively, and incubated for an additional hour at 30° C.” left out

“And” between values parts separate entries of the source, which are not always exact repeats. Equal entries are not always repeated.

B1: monoclonal antibody 4035-062 (antibody, IgG1, V domains shown)
VH: QVQLQESGPGLVKPSETLSLTCTVSGFSLTIYDVHWVRQPPGKGLEWIGVIWSDGSTDYNPSLKSRVTISKDTSKNQVSLKLSSVTAADTAVYYCARNWVDQAWFAYWGQGTLVTVSS
VL: DIQMTQSPSSLSASVGDRVTITCRASKNIYSYLAWYQQKPGKAPKLLVYNAKTLPEGVPSRFSGSGSGTDFTLTISSLQPEDFATYYCQHHYGTPLTFGQGTKLEIK
Take B1: the EC50 in test [1] was determined as 0.0135 nM. Besides, in [2], the “IC50 (inhibition of APRIL-mediated BCMA NFκB signaling)” value is about 0.38 nM and the “IC50 (inhibition of APRIL-mediated TACI NFκB signaling)” value is about 1.02 nM. For the same molecule, in test [3], the IC50 is 0.1 nM and the “Relative Activity (normalised to 2419)” value is 0.41. Moreover, in test [4], the IC50 was 0.26 nM and the “Relative Activity (normalised to 2419)” value is 0.93. The EC50 in test [5] was 0.00128 nM.

B2: monoclonal antibody 2419-1406 (antibody, V domains shown)
VH: QVQLVQSGAEVKKPGASVKVSCKASGYTFTDYTIHWVRQATGQGLEWMGWIYPLRGSINYAQKFQGRVTMTADKSISTVYMELSSLRSEDTAVYFCARHGAYYSNAFDYWGQGTLVTVSS
VL: EIVMTQSPATLSVSPGERATLSCRASESVDNDGIRFLHWYQQKPGQAPRLLIYRASTRATGIPARFSGSGSRTEFTLTISSLQSEDFAVYYCQQSNKDPYTFGGGTKVEIK
Regarding B2, the EC50 turned out to be 0.0384 nM in test [1] and 0.00334 nM in test [5]. The IC50 in test [3] was 0.11 nM; in [4], 0.24 nM. In addition, the “Relative Activity (normalised to 2419)” value in test [3] is 0.47; in [4], 0.88.

B3: monoclonal antibody 3525 (antibody, mouse IgG2, V domains shown)
VH: QVQLQQSGAELVRPGASVKLSCKASGYTFTDHEMHWVRQTPVHGLEWIGVIDPDTGDTTYNQKFKGKATLTADKSSSTAYMDLRSLTSEDSAVFYCTRWTGGDYWGHGTTLTVSS
VL: DVVMTQTPLSLSVTIGQPASISCKSSQSLLYSNGKTYLNWFQQRPGQSPKRLMYQVSKLDPGIPDRFSGSGSETDFTLKISRVEAEDLGLYYCLQGTYYPYTFGGGTKLEIK
With B3, the IC50 stood at 0.85 nM in [6] and 4.05 nM in [7]. For the same molecule, the results for the “% Inhibition” value in test [8] and in test [10] were 86% and 48%, respectively. Besides, the “IC50 (read off the curve)” value in [9] was about 0.3 mg/L. Also, the EC50 in [11] is 0.0534 µg/mL and 0.361 nM.

B4: HuTACI-Fc-001 (Fc fusion, human, UniProt O14836 29-110, looked up)
chain: VAMRSCPEEQYWDPLLGTCMSCKTICNHQSQRTCAAFCRSLSCRKEQGKFYDHLLRDCISCASICGQHPKQCAYFCENKLRS
notes: range 29-110; also called human TACI-Fc; recombinant TACI-Fc; not shown: Fc portion of human IgG1 beginning at position E98 in CH1
As to B4, in test [1], the EC50 was determined as 0.103 nM.

B5: monoclonal antibody 2621 (antibody, mouse IgG2, V domains shown)
VH: EVQLQQSGAELVRPGSSVKMSCKTSGYTFTSYGINWVKQRPGQGLEWIGYIYIGNGYAEYNERFKGKATLTSDTSSSTAYMQLSSLTSEDSAIYFCALYYPWFTYWGQGTLVTVSA
VL: DIQMTQSPASLSASVGDSVTITCRASENIYSYLAWYQQKQGKSPQLLVYNAKTLAEGVPSRFSGSGSGTQFSLKINSLQPEDFGNYYCQHHYDTPFTFGGGTKLEIK
As to B5, the EC50 is under 0.2 nM in test [12]; 0.0143 µg/mL and 0.097 nM in test [11]. Also, the IC50 in [7] is 1 nM. Further, the results for the “% Inhibition” value in [8] and in test [10] were 79% and 0%, respectively.

B6: monoclonal antibody 3327 (antibody, V domains shown)
VH: EVQLQQSGPELVKPGASVKMSCKASGYSFTGYFMNWVKQSHGKSLEWIGRINPYNGDTFYNQKFKGKATLTVDKSSSTAHMELRSLTSEDSALYYCASEGDGYYWYFDVWGAGTTVTVSS
VL: not shown
On to B6, for which the values for the IC50 in [6] and in test [7] were 2.35 nM and 3.16 nM, respectively. For the same molecule, the “% Inhibition” value turned out to be 89% in test [8] and 99% in test [10].

B7: monoclonal antibody 2922 (antibody, mouse IgG2, V domains shown)
VH: QVQLHQSGPELVKPGASVKLSCKTSGYTFTSYDVFWVKQRPGQGLEWIGWIYPRDSSTKYNEKFKGKATLTVDTSSSTAYMELHSLTSEDSAVYFCAKEGYDYDKRGFDYWGQGTTLTVSS
VL: DIVLTQSPASLAVSLGQRAIISCKASQSVSFAGTNLMHWYQQRPGQQPKLLIYRASNLEPGVPTRFSGSGSRTDFTLNIHPVEEDDAATYYCQQSREYPWTFGGGTKLEIK
In the case of B7, the IC50 in [6] is 22 nM; in test [7], 31.6 nM; in [13] it was over 10 nM. Also, the “% Inhibition” value in test [8] and in [10] was 97% throughout. The EC50 in test [11] is 0.0713 µg/mL and 0.482 nM.

The EC50 is the midpoint of the concentration-response curve. As a reminder, the IC50 is the concentration at which inhibition is half-maximal. As a reminder, the % Inhibition is the relative decrease from the control value, in per cent.

The record behind these values is patent publication US20170145086A1 (VISTERRA, published 2017).
